In US20100330072A1 (published 2010):

T1: recombinant mature myostatin (human, produced in E. coli) (human, UniProt O14793 267-375)
T1 construct: mature; also called GDF-8
T1 sequence (looked up): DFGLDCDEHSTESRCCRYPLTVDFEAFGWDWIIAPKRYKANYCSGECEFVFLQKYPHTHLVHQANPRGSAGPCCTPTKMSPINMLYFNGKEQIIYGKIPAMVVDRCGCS


Molecular target: T1, recombinant mature myostatin (human, …)
Experiment: KinExA solution equilibrium assay or BIAcore (table does not say which)

Binder | Kd
2x mTN8-19-21 peptibody (Fc fusion, Fc dimer) GGGGGAQSEYQGLCTRWPWMCPPQGWKLEGSGSATGGSGSTASSGSGSATGSEYQGLCTRWPWMCPPQGWKLE | 6 pM
2x mTN8-19-33 peptibody (Fc fusion, Fc dimer; also called 2×mTN8-19-33) GGGGGAQPESQGHCTRWPWMCPPQGWGLEGSGSATGGSGSTASSGSGSATGPESQGHCTRWPWMCPPQGWGLE | 3 pM
2x mTN8-19-7 peptibody (Fc fusion, Fc dimer; also called 2×mTN8-19-7) GGGGGAQLADHGQCIRWPWMCPPEGWELEGSGSATGGSGSTASSGSGSATGLADHGQCIRWPWMCPPEGWELE | 12 pM
